The values below are quoted from earlier work in US6051590A, “Immunosuppressant tricyclic compounds” (Merck & Co., Inc., priority 1999, dated 2000).

A word on the IC50: it is the concentration that inhibits the measured activity by half.

The target of the data set is T1, Kv 1.3 channels (CHO cells transfected with Kv 1.3) (Homo sapiens, UniProt P22001).
T1 construct: expressed in transfected cells; host or cells: CHO cells
As to conditions: stated in the method for the reference blocker.

T1 sequence (P22001 whole entry): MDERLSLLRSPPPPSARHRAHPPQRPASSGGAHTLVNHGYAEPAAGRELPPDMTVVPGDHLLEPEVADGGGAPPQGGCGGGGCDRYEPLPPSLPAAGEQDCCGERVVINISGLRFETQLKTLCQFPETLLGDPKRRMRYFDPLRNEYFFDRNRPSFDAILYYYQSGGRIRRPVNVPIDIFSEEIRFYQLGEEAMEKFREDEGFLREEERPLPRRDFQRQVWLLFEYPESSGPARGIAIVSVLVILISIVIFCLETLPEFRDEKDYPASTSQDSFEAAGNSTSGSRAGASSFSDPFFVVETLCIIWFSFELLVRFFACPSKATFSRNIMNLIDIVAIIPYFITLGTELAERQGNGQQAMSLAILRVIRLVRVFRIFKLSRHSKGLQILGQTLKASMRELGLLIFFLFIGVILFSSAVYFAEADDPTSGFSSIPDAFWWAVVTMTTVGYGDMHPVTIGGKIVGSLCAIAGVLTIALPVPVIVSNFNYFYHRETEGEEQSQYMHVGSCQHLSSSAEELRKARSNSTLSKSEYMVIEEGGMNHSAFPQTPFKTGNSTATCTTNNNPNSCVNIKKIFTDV

Turning to “margatoxin (TIINVKCTSPKQCLPPCKAQFGQSAGAKCMNGKCKCYPH; UniProt P40755 1-39, looked up)”, the IC50 was 100 pM.
